Measured values: doi:10.1101/2023.04.08.536109

Target: Sulfolobus acidocaldarius GPN-loop GTPase Saci1281 (SaGPN) (Sulfolobus acidocaldarius)
Assay: SEC

- stoichiometry N: 2
Substance: Sulfolobus acidocaldarius GPN-loop GTPase Saci1281 (SaGPN) (enzyme)
